Laboratory results reported in US20220227830A1, “QD DOSING OF GIP RECEPTOR AGONIST PEPTIDE COMPOUNDS AND USES THEREOF” (Takeda Pharmaceutical Company Limited, priority 2020, published 2022).
Starred links: 1 amine or outer side, 2 acyl side, 3 side chain; linkers in the order of their positions; H or OH if unused. Non-standard residues stand in square brackets, D forms with d. Groups on a side chain read outwards from the residue. No end group written: not given here. *: point of attachment. 2OEGgE‑C16DA = O=C(O)CCCCCCCCCCCCCCC(=O)N[C@@H](CCC(=O)NCCOCCOCC(=O)NCCOCCOCC(=O)*)C(=O)O; C15 diacid = O=C(O)CCCCCCCCCCCCCC(=O)*; γGlu = O=C(O)[C@H](CCC(=O)[*:2])N[*:1]; NMeY = CN[C@@H](Cc1ccc(O)cc1)C(=O)O; AEEA = NCCOCCOCC(=O)O; Aib = CC(C)(N)C(=O)O

T1: full-length human GIPR with an N-terminal FLAG tag (human, UniProt P48546 22-466)
T1 sequence (looked up): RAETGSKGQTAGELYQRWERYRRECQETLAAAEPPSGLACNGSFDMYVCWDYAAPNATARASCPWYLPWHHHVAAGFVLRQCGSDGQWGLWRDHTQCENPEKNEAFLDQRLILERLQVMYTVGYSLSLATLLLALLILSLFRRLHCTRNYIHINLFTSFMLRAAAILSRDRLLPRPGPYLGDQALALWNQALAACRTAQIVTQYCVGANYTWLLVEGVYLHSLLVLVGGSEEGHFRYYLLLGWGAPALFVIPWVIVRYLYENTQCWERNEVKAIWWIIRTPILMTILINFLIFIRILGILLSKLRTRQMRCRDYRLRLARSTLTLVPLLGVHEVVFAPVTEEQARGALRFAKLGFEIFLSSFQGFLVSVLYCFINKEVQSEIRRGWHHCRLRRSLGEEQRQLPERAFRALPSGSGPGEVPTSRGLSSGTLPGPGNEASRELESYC

B1: Compound 112 (peptide)
peptide: [NMeY][Aib]EGTFISDYSI[Aib]LDR[Aib]AQ[Aib]K([AEEA-γGlu-γGlu-γGlu-C15 diacid])FVNWLLAQK-NH2
modifications: N-terminus assumed
SMILES: CC[C@H](C)[C@H](NC(=O)[C@H](Cc1ccccc1)NC(=O)[C@@H](NC(=O)CNC(=O)[C@H](CCC(=O)O)NC(=O)C(C)(C)NC(=O)[C@H](Cc1ccc(O)cc1)NC)[C@@H](C)O)C(=O)N[C@@H](CO)C(=O)N[C@@H](CC(=O)O)C(=O)N[C@@H](Cc1ccc(O)cc1)C(=O)N[C@@H](CO)C(=O)N[C@H](C(=O)NC(C)(C)C(=O)N[C@@H](CC(C)C)C(=O)N[C@@H](CC(=O)O)C(=O)N[C@@H](CCCNC(=N)N)C(=O)NC(C)(C)C(=O)N[C@@H](C)C(=O)N[C@@H](CCC(N)=O)C(=O)NC(C)(C)C(=O)N[C@@H](CCCCNC(=O)COCCOCCNC(=O)CC[C@H](NC(=O)CC[C@H](NC(=O)CC[C@H](NC(=O)CCCCCCCCCCCCCC(=O)O)C(=O)O)C(=O)O)C(=O)O)C(=O)N[C@@H](Cc1ccccc1)C(=O)N[C@H](C(=O)N[C@@H](CC(N)=O)C(=O)N[C@@H](Cc1c[nH]c2ccccc12)C(=O)N[C@@H](CC(C)C)C(=O)N[C@@H](CC(C)C)C(=O)N[C@@H](C)C(=O)N[C@@H](CCC(N)=O)C(=O)N[C@@H](CCCCN)C(N)=O)C(C)C)[C@@H](C)CC
B2: Compound 118 (peptide)
peptide: [NMeY][Aib]EGTFISDYSI[Aib]LDR[Aib]K([AEEA-AEEA-γGlu-C15 diacid])Q[Aib]DFVNWLLAQR-NH2
modifications: N-terminus assumed
SMILES: CC[C@H](C)[C@H](NC(=O)[C@H](Cc1ccccc1)NC(=O)[C@@H](NC(=O)CNC(=O)[C@H](CCC(=O)O)NC(=O)C(C)(C)NC(=O)[C@H](Cc1ccc(O)cc1)NC)[C@@H](C)O)C(=O)N[C@@H](CO)C(=O)N[C@@H](CC(=O)O)C(=O)N[C@@H](Cc1ccc(O)cc1)C(=O)N[C@@H](CO)C(=O)N[C@H](C(=O)NC(C)(C)C(=O)N[C@@H](CC(C)C)C(=O)N[C@@H](CC(=O)O)C(=O)N[C@@H](CCCNC(=N)N)C(=O)NC(C)(C)C(=O)N[C@@H](CCCCNC(=O)COCCOCCNC(=O)COCCOCCNC(=O)CC[C@H](NC(=O)CCCCCCCCCCCCCC(=O)O)C(=O)O)C(=O)N[C@@H](CCC(N)=O)C(=O)NC(C)(C)C(=O)N[C@@H](CC(=O)O)C(=O)N[C@@H](Cc1ccccc1)C(=O)N[C@H](C(=O)N[C@@H](CC(N)=O)C(=O)N[C@@H](Cc1c[nH]c2ccccc12)C(=O)N[C@@H](CC(C)C)C(=O)N[C@@H](CC(C)C)C(=O)N[C@@H](C)C(=O)N[C@@H](CCC(N)=O)C(=O)N[C@@H](CCCNC(=N)N)C(N)=O)C(C)C)[C@@H](C)CC
B3: Compound 115 (peptide)
peptide: [NMeY][Aib]EGTFISDYSI[Aib]K([AEEA-γGlu-γGlu-γGlu-C15 diacid])DR[Aib]AQ[Aib]NFVNWLLAQR-NH2
modifications: N-terminus assumed
SMILES: CC[C@H](C)[C@H](NC(=O)[C@H](Cc1ccccc1)NC(=O)[C@@H](NC(=O)CNC(=O)[C@H](CCC(=O)O)NC(=O)C(C)(C)NC(=O)[C@H](Cc1ccc(O)cc1)NC)[C@@H](C)O)C(=O)N[C@@H](CO)C(=O)N[C@@H](CC(=O)O)C(=O)N[C@@H](Cc1ccc(O)cc1)C(=O)N[C@@H](CO)C(=O)N[C@H](C(=O)NC(C)(C)C(=O)N[C@@H](CCCCNC(=O)COCCOCCNC(=O)CC[C@H](NC(=O)CC[C@H](NC(=O)CC[C@H](NC(=O)CCCCCCCCCCCCCC(=O)O)C(=O)O)C(=O)O)C(=O)O)C(=O)N[C@@H](CC(=O)O)C(=O)N[C@@H](CCCNC(=N)N)C(=O)NC(C)(C)C(=O)N[C@@H](C)C(=O)N[C@@H](CCC(N)=O)C(=O)NC(C)(C)C(=O)N[C@@H](CC(N)=O)C(=O)N[C@@H](Cc1ccccc1)C(=O)N[C@H](C(=O)N[C@@H](CC(N)=O)C(=O)N[C@@H](Cc1c[nH]c2ccccc12)C(=O)N[C@@H](CC(C)C)C(=O)N[C@@H](CC(C)C)C(=O)N[C@@H](C)C(=O)N[C@@H](CCC(N)=O)C(=O)N[C@@H](CCCNC(=N)N)C(N)=O)C(C)C)[C@@H](C)CC
B4: Compound 116 (peptide)
peptide: [NMeY][Aib]EGTFISDYSI[Aib]K([AEEA-AEEA-γGlu-C15 diacid])DR[Aib]AQ[Aib]DFVNWLLAQRPSSGAPPPS-NH2
modifications: N-terminus assumed
SMILES: CC[C@H](C)[C@H](NC(=O)[C@H](Cc1ccccc1)NC(=O)[C@@H](NC(=O)CNC(=O)[C@H](CCC(=O)O)NC(=O)C(C)(C)NC(=O)[C@H](Cc1ccc(O)cc1)NC)[C@@H](C)O)C(=O)N[C@@H](CO)C(=O)N[C@@H](CC(=O)O)C(=O)N[C@@H](Cc1ccc(O)cc1)C(=O)N[C@@H](CO)C(=O)N[C@H](C(=O)NC(C)(C)C(=O)N[C@@H](CCCCNC(=O)COCCOCCNC(=O)COCCOCCNC(=O)CC[C@H](NC(=O)CCCCCCCCCCCCCC(=O)O)C(=O)O)C(=O)N[C@@H](CC(=O)O)C(=O)N[C@@H](CCCNC(=N)N)C(=O)NC(C)(C)C(=O)N[C@@H](C)C(=O)N[C@@H](CCC(N)=O)C(=O)NC(C)(C)C(=O)N[C@@H](CC(=O)O)C(=O)N[C@@H](Cc1ccccc1)C(=O)N[C@H](C(=O)N[C@@H](CC(N)=O)C(=O)N[C@@H](Cc1c[nH]c2ccccc12)C(=O)N[C@@H](CC(C)C)C(=O)N[C@@H](CC(C)C)C(=O)N[C@@H](C)C(=O)N[C@@H](CCC(N)=O)C(=O)N[C@@H](CCCNC(=N)N)C(=O)N1CCC[C@H]1C(=O)N[C@@H](CO)C(=O)N[C@@H](CO)C(=O)NCC(=O)N[C@@H](C)C(=O)N1CCC[C@H]1C(=O)N1CCC[C@H]1C(=O)N1CCC[C@H]1C(=O)N[C@@H](CO)C(N)=O)C(C)C)[C@@H](C)CC

How the values were obtained:
[1] = target: T1, full-length human GIPR with an …; experiment: cell-based or functional assay
[2] = target: full-length human GLP-1R with an N-terminal FLAG tag (human, UniProt P43220 24-463); experiment: cell-based or functional assay

Binder | Human GIPR cAMP, HEK293T EC50 [1] [nM] | Human GLP1R cAMP HEK293T EC50 [2] [nM]
[NMeY][Aib]EGTFISDYSI[Aib]LDR[Aib]KQ[Aib]DFVNWLLAQR-NH2 (not fully specified (residue 18)) [Compound 117] | 0.0006 | 1000
[NMeY][Aib]EGTFISDYSI[Aib]LDR[Aib]AQ[Aib]KFVNWLLAQRGGGGS-NH2 (not fully specified (residue 21)) [Compound 114] | 0.0007 | 115
[NMeY][Aib]EGTFISDYSIALDR[Aib]KQ[Aib]NFVNWLLAQSPSSGAPPPS-NH2 (not fully specified (residue 18, N-terminus)) [Compound 119] | 0.0005 | 1000
B1 | 0.0004 | 12
[NMeY][Aib]EGTFISDYSIALDR[Aib]AQ[Aib]KFVNWLLAQR-NH2 (not fully specified (residue 21)) [Compound 121] | 0.0003 | 5.5
[NMeY][Aib]EGTFISDYSIAK(2OEGgE‑C16DA)DR[Aib]AQ[Aib]NFVNWLLAQK [Compound 11] | 0.0003 | 145
B2 | 0.0009 | 525
B3 | 0.0005 | 437
B4 | 0.0003 | 339
